Data published in US7807788 (GlaxoSmithKline, dated 2010).
“And” between values parts separate entries of the source, which are not always exact repeats. Equal values may be shown once. One block for each binder: values may come before it.

Experiments:
[1] = molecular target: T1, alanine-scan peptide 1 (parental sequence, no substitution) (human, N-terminal biotin); assay: peptide ELISA: immobilised biotinylated peptide, titrated parental 6A1 (mAb named in legend paragraph 137, not on the sheet)
T1 construct: also called parental peptide
T1 peptide: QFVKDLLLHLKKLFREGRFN

alanine-scan peptide 66 = molecular target: T2, alanine-scan peptide 66 (human, N-terminal biotin); assay: as above
T2 construct: also called F106A peptide
T2 peptide: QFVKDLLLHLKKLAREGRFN

alanine-scan peptide 63 = molecular target: T3, alanine-scan peptide 63 (human, N-terminal biotin); assay: as above
T3 construct: also called K103A peptide
T3 peptide: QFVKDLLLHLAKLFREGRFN

alanine-scan peptide 65 = molecular target: T4, alanine-scan peptide 65 (human, N-terminal biotin); assay: as above
T4 construct: also called L105A peptide
T4 peptide: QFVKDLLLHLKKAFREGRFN

[2] = molecular target: T5, recombinant E.coli-expressed human IL-13 (human, UniProt P35225 35-146); assay: sandwich ELISA: E.coli-expressed human IL-13 captured by goat anti-human IL-13 polyclonal, titrated 6A1, anti-mouse IgG-HRP
T5 construct: Untagged E.coli material, bought (Cambridge Bioscience) or made in-house (CA); also called hIL-13; human IL13 (CA)

[3] = molecular target: T6, recombinant E.coli-expressed cynomolgus IL-13 (cynomolgus, UniProt Q5I6E4 21-132 (Macaca thibetana entry)); assay: cell-based or functional assay
T6 chain: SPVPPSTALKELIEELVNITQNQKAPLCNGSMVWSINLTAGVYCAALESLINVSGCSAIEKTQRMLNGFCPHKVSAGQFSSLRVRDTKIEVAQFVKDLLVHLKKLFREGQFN

[4] = molecular target: T5, recombinant E.coli-expressed human IL-13; assay: cell-based or functional assay
[5] = molecular target: T7, recombinant E.coli-expressed human IL-4 (human, UniProt P05112 25-153); assay: sandwich ELISA: human IL-4 captured by goat anti-human IL-4 polyclonal, titrated antibody (positive control)
T7 sequence (looked up): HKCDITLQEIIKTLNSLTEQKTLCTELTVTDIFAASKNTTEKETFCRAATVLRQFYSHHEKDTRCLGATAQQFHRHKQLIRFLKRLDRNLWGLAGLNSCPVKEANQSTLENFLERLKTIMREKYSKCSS

EC50 (read off the curve) [1]: ~0.02 µg/mL and ~0.03 µg/mL
EC50 (read off the curve) (alanine-scan peptide 66): ~0.03 µg/mL
EC50 (read off the curve) (alanine-scan peptide 63): ~0.02 µg/mL
EC50 (read off the curve) (alanine-scan peptide 65): ~0.03 µg/mL
EC50 (read off the curve) [2]: ~0.03 µg/mL
Mean ND50 for 2 assays, TF-1 bioassay [3]: 0.078 µg/mL
B1: mouse monoclonal antibody 6A1 (antibody, mouse IgG1, V domains shown)
VH: EIQLQQSVAELVRPGASVRLSCTASGFYIKDTYMHWVIQRPEQGLEWIGTIDPANGNTKYVPKFQGKATITADTSSNTAYLRLSSLTSEDTAIYYCARSIYDDYHYDDYYAMDYWGQGTSVTVSS
VL: DVLMTQTPLSLPVSLGDQASISCRSSQNIVHINGNTYLEWYLQKPGQSPKLLIYKISDRFSGVPDRFSGSGSGTDFTLKISRVEAEDLGVYYCFQGSHVPWTFGGGTKLEIK
notes: Murine IgG1/kappa from hybridoma; also called mAb 6A1; 6A1 parental mAb

Mean ND50 for 2 assays, TF-1 bioassay [4]: 0.119 µg/mL
B2: chimaeric 6A1 monoclonal antibody (antibody, human IgG1, V domains shown)
VH: EIQLQQSVAELVRPGASVRLSCTASGFYIKDTYMHWVIQRPEQGLEWIGTIDPANGNTKYVPKFQGKATITADTSSNTAYLRLSSLTSEDTAIYYCARSIYDDYHYDDYYAMDYWGQGTSVTVSS
VL: DVLMTQTPLSLPVSLGDQASISCRSSQNIVHINGNTYLEWYLQKPGQSPKLLIYKISDRFSGVPDRFSGSGSGTDFTLKISRVEAEDLGVYYCFQGSHVPWTFGGGTKLEIK

EC50 (read off the curve) [5]: ~0.03 µg/mL
B3: anti-human IL4 mAb (antibody, V domains shown)
VH: QVQLQQSGPELVKPGASVKISCKASGYSFTSYWIHWIKQRPGQGLEWIGMIDPSDGETRLNQRFQGRATLTVDESTSTAYMQLRSPTSEDSAVYYCTRLKEYGNYDSFYFDVWGAGTLVTVSS
VL: DIQMTQSPASLSVSVGDTITLTCHASQNIDVWLSWFQQKPGNIPKLLIYKASNLHTGVPSRFSGSGSGTGFTLTISSLQPEDIATYYCQQAHSYPFTFGGGTKLEIKR
